Measured values from paper PMC7004846.

Molecular target: Aquifex aeolicus VF5 Wzt carbohydrate-binding domain (residues 235-395), long construct (Aquifex aeolicus VF5)
Assay: SEC

stoichiometry N: 2
Substance: Aquifex aeolicus VF5 Wzt carbohydrate-binding domain (residues 235-395), long construct (domain or fragment)
